Measurements from US20230312678A1.
Where two headings read alike, the source gives them in different places.

Experiments:
[1] = biological target: ED-tagged full-length PD-1 receptor stably expressed in Jurkat cells (PathHunter PD-1 Signaling Bioassay, DiscoverX) (UniProt Q15116); test: cell-based or functional assay
[2] = biological target: ED-tagged full-length PD-1 receptor stably expressed in Jurkat cells (PathHunter PD-1 Signaling Bioassay, DiscoverX) (UniProt Q15116); test: cell-based or functional assay; remark: listed apart in the source

Chain of UniProt Q15116 (Q15116 25-288): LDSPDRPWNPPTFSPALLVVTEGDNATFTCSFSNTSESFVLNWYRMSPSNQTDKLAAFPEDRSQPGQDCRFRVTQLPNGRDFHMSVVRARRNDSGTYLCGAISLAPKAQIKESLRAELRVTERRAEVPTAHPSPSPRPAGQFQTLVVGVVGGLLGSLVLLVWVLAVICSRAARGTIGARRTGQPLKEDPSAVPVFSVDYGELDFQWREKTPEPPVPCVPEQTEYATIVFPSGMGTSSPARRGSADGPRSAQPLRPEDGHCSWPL

Substance: hPD-L1-Fc-GPI artificial synapses engineered from exosomes (hPDL1-Fc-GPI fusion polypeptide displayed on the exosome surface) (Fc fusion)
- Relative Light Units (RLU), modified PathHunter PD-1 Signaling Bioassay; fold against soluble PD-L1-Fc [1]: 10000 fold
- Relative Light Units (RLU), modified PathHunter PD-1 Signaling Bioassay; fold against soluble PD-L1-Fc [2]: 1000 fold

Substance: hPD-L2-Fc-GPI artificial synapses engineered from exosomes (hPDL2-Fc-GPI fusion polypeptide displayed on the exosome surface) (Fc fusion)
- Relative Light Units (RLU), modified PathHunter PD-1 Signaling Bioassay; fold against soluble PD-L2-Fc [1]: 10000 fold
- Relative Light Units (RLU), modified PathHunter PD-1 Signaling Bioassay; fold against soluble PD-L2-Fc [2]: 1000 fold
